Measurements reported in paper PMC9262799, “The first step into phenolic metabolism in the hornwort Anthoceros agrestis: molecular and biochemical characterization of two phenylalanine ammonia-lyase isoforms” (Planta, 2022).

How the values were obtained:
Assay type in all cases: biochemical, Anthoceros agrestis
[1] = system: T1, N[C@@H](Cc1ccc(O)cc1)C(=O)O; assay: HPLC of 4-coumaric acid formed, Michaelis-Menten fit; conditions: boric acid/sodium tetraborate buffer pH 8.8, 36 °C, 10 min, 0-9.6 mM Tyr
T1 construct: full-length, 752 residues (81,895 Da), N-terminal 6xHis-tag kept (84,058 Da with tag), pET15b, E. coli SoluBL21, Ni-NTA; cDNA from suspension culture; PALs mostly homotetramers, oligomer not measured here
Description: HPLC of 4-coumaric acid formed, Michaelis-Menten fit on AaPAL1

[2] = system: T2, N[C@@H](Cc1ccccc1)C(=O)O; assay: HPLC of t-cinnamic acid formed, Michaelis-Menten fit; conditions: boric acid/sodium tetraborate buffer pH 8.8, 36 °C, 10 min, 1-500 µM Phe
T2 construct: full-length, 752 residues (81,895 Da), N-terminal 6xHis-tag kept (84,058 Da with tag), pET15b, E. coli SoluBL21, Ni-NTA; cDNA from suspension culture; PALs mostly homotetramers, oligomer not measured here
Description: HPLC of t-cinnamic acid formed, Michaelis-Menten fit on AaPAL1

[3] = system: T3, N[C@@H](Cc1ccccc1)C(=O)O; assay: as above; conditions: boric acid/sodium tetraborate buffer pH 8.8, 36 °C, 4 min, 1-500 µM Phe
T3 construct: full-length, 753 residues (81,704 Da), N-terminal 6xHis-tag kept (83,867 Da with tag), pET15b, E. coli SoluBL21, Ni-NTA; cDNA from suspension culture; PALs mostly homotetramers, oligomer not measured here
Description: HPLC of t-cinnamic acid formed, Michaelis-Menten fit on AaPAL2

[4] = system: T4, N[C@@H](Cc1ccc(O)cc1)C(=O)O; assay: HPLC of 4-coumaric acid formed, Michaelis-Menten fit; conditions: boric acid/sodium tetraborate buffer pH 8.8, 36 °C, 15 min, 0-9.6 mM Tyr
T4 construct: full-length, 753 residues (81,704 Da), N-terminal 6xHis-tag kept (83,867 Da with tag), pET15b, E. coli SoluBL21, Ni-NTA; cDNA from suspension culture; PALs mostly homotetramers, oligomer not measured here
Description: HPLC of 4-coumaric acid formed, Michaelis-Menten fit on AaPAL2

Sequence of AaPAL2 (Anthoceros agrestis) (chain, as listed by the source): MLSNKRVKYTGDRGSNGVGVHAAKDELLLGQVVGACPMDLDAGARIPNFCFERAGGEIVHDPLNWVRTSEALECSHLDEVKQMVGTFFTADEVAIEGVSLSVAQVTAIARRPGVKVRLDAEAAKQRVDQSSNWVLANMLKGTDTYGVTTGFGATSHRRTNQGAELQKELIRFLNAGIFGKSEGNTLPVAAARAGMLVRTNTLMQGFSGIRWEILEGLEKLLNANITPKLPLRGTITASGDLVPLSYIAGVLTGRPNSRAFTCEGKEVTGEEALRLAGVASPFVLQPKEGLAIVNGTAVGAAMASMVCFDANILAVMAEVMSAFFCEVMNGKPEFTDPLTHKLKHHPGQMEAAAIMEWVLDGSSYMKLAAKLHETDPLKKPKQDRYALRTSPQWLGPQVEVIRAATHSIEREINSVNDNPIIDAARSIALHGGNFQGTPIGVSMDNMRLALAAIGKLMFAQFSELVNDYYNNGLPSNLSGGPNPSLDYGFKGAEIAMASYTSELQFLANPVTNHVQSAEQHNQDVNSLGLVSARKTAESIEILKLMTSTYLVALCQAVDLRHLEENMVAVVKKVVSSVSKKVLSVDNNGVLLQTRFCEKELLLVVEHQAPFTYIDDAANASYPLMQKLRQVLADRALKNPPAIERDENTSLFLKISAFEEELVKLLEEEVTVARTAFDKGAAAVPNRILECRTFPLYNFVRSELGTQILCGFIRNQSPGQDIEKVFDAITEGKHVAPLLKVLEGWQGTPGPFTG
Sequence of AaPAL1 (Anthoceros agrestis) (chain, as listed by the source): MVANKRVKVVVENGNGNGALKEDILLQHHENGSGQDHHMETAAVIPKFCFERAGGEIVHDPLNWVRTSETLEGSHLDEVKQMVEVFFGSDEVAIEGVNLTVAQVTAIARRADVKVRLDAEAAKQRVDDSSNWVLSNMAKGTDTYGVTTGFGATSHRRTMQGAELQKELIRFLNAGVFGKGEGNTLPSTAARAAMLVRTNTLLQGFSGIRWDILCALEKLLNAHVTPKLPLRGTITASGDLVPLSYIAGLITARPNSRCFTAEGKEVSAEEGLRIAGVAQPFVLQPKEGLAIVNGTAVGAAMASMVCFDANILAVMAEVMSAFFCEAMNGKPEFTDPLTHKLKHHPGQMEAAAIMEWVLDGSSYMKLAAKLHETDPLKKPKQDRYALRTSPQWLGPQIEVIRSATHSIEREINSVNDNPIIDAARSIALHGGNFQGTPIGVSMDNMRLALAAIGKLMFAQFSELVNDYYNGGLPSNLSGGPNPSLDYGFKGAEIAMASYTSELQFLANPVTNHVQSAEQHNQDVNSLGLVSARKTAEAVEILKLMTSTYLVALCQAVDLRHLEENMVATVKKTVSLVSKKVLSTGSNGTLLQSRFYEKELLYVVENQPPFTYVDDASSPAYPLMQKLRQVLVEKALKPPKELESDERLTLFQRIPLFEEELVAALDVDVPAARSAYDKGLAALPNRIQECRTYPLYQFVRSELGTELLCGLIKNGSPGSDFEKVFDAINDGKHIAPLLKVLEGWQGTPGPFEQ

For AaPAL1 (Anthoceros agrestis), the Km [1] was 3308 ± 987 µM, the Vmax [1] was 0.058 µmol/min/mg and the kcat [1] was 0.081 s⁻¹. The kcat/Km [1] was 24.5 M⁻¹ s⁻¹, the Km [2] was 39 ± 15 µM and the Vmax [2] was 0.252 µmol/min/mg. For the same substance, the kcat [2] was 0.353 s⁻¹ and the kcat/Km [2] was 9050 M⁻¹ s⁻¹.
Work on AaPAL2 (Anthoceros agrestis) yielded a Km [3] of 18 ± 4 µM, a Vmax [3] of 0.206 µmol/min/mg and a kcat [3] of 0.288 s⁻¹. It also gave a kcat/Km [3] of 16000 M⁻¹ s⁻¹, a Km [4] of 3526 ± 617 µM and a Vmax [4] of 0.0296 µmol/min/mg. It also gave a kcat [4] of 0.041 s⁻¹ and a kcat/Km [4] of 11.6 M⁻¹ s⁻¹.
